Source: patent US20230257475A1
Where two headings read alike, the source gives them in different places. Values belong to the molecule of their own block, whether it stands above or below them.

Assays:
human CD20 (human) [1] = biological target: human CD20 (human) (UniProt P11836); assay: flow cytometry on Raji cells (CD20 on the cell surface), serial dilution of the mAb, detection with PE-conjugated mouse anti-human IgG1Fc, MFI
human CD20 (human) [2] = biological target: human CD20 (human) (UniProt P11836); assay: as above; remark: listed apart in the source
human CD22 (human) = human CD22 (human) (UniProt P20273); assay: flow cytometry on K562.huCD22.Luc cells against parental K562 cells
[3] = biological target: human CD19, CD20 and CD22 on CD19+CD20+CD22+ tri-positive B lymphoma cells (Raji, Daudi) (human), P15391; assay: cell-based or functional assay

UniProt P11836, sequence (P11836 whole entry): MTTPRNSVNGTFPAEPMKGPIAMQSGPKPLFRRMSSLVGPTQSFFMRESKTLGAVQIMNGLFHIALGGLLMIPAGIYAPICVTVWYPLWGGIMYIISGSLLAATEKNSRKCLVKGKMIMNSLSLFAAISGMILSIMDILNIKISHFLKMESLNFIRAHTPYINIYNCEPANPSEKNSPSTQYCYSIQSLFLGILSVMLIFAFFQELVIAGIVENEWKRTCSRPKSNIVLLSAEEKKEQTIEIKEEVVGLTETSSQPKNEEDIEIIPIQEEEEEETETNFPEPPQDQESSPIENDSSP

- EC50 (human CD20 (human) [1]): 13.2 nM
- EC50 (human CD20 (human) [2]): 8.5 nM
Molecule: Leu16 Fab-huIgG1Fc mAb (antibody)

- MFI fold over K562 cells (negative control) (human CD22 (human)): 642 fold
Molecule: PE conjugated anti-human CD22 antibody (Miltenyi Biotec. Cat. No. 130-105-086)

- EC50 (human CD20 (human) [2]): 8.1 nM
Molecule: Rituximab Fab-huIgG1Fc mAb (antibody)

- IFN-γ release in co-culture with Raji cells, 24 hours, against AIO-7C1 CAR-T cells [3]: 2 fold
B1: AIO-8C1 CAR (protein)
chain: QVQLVESGGGSVQAGGSLRLSCGASGNINSRNCMGWFRQAPGKEREGVAAIGQVTGRSYYVDSVKGRFTISLDNAKNTLYLQMNTLKPEDTAMYYCAAAPGCLLSALRSADYRNWGQGTQVTVSSGGGGSEVQLVESGPGLVKPSQTLSLTCTVSGASITTGEFYWNWFRQPPGKGLEWMGAIAASGSTTYSPSFESRTSISRDTSENQFYLQLSSVTPEDTAVYYCGRSFGVAAVTTGQNRGQGTQVTVSSGGGGSQIQLVESGGGLVQPGGSLRLSCAASGFTFSNYPMTWLRQAPGKGLESVSDITSGGDRPYYADSVKGRFTISRDNAKNMLYLEMNSLKTEDTAVYYCATWDRTLTGQGTQVTVSSTSTTTPAPRPPTPAPTIASQPLSLRPEACRPAAGGAVHTRGLDFACDIYIWAPLAGTCGVLLLSLVITLYCKRGRKKLLYIFKQPFMRPVQTTQEEDGCSCRFPEEEEGGCELRVKFSRSADAPAYQQGQNQLYNELNLGRREEYDVLDKRRGRDPEMGGKPRRKNPQEGLYNELQKDKMAEAYSEIGMKGERRRGKGHDGLYQGLSTATKDTYDALHMQALPPR
